Earlier results on one molecule are cited in paper PMC10814857, “Functional Classification and Interaction Selectivity Landscape of the Human SH3 Domain Superfamily” (Cells, 2024).

One series concerns the target PACSIN1 SH3 domain. Details: method as in ref [60] (a number printed in a supplementary file, which may have a reference list of its own: not looked up in the article's list). As to conditions: PACSIN1, ITC, Table S4; ref [60].
Series [1] has as its target bPIX (ARHGEF7) SH3 domain. Set-up: method as in 3 sources, one per row (each row's own in cited_ref): ref [33] (a number printed in a supplementary file, which may have a reference list of its own: not looked up in the article's list) ||| ref [60] (a number printed in a supplementary file, which may have a reference list of its own: not looked up in the article's list) ||| ref [34] (a number printed in a supplementary file, which may have a reference list of its own: not looked up in the article's list). As to conditions: ITC, Table S4, ref [60]. (Isothermal titration calorimetry measures the heat released or taken up as one component is titrated into another.)

For series [2], the target named is SH3GL2 (Endophilin-A1) SH3 domain. The following applies: ITC, Table S4, ref [60]. The procedure: page 6: […] […] […] PAK2 […] PXXXPR PXXXPR 1.05 ITC [34] TRSVI ITSN1-2 Synthetic […] Exceptional [W/F][R/W]xSx[A/ 53 ITC [29] peptide G][F/Y][L/V]xGP[ W/L] NCK1-2 N-WASP GP[…] … 147 HSQC [64] VA[…] 199 PLCG1 SOS1 AAPV[…] … 0.20mM SPR [75] AADS[…] 0.40mM AAES[…] 0.70mM AAIA[…] 0.28mM BAIAP2L1 EspFUR45 IPP[…] … 0.5 nM ITC [76] (IRTKS) 9 SORBS2- Synthetic […] Exceptional XRXGXAYLXYVX 38 ITC [29] 1 peptide Synthetic RL[…](L/P) ...

B1: PEDAGAGENRRVSGNNSPSLSNGGFKPSRPPRPSRPPPPTPRRPASVNGSPSATSESDGSSTG (peptide)
chain: PEDAGAGENRRVSGNNSPSLSNGGFKPSRPPRPSRPPPPTPRRPASVNGSPSATSESDGSSTG
notes: published Itch proline-rich peptide
Consider B1, for which the Kd (as a rule, the concentration at which binding is half-saturated) was 4330 nM on PACSIN1 SH3 domain, 1440 nM in series [1] and 457 nM in series [2].
